# Patent publication US20180282373
# Target: purified recombinant full-length WDR5 (UniProt P61964)
substance,measurement,value
"GST-tagged MLL2 Win-SET domain, MLL2(5319-5537), Win motif arginine to alanine mutant","core complex H3K4 dimethylation activity, mutant against wild type",a 2-fold increase in this activity with the MLL2 Win motif variant
"GST-tagged MLL4 Win-SET domain, MLL4(2490-2715), Win motif arginine to alanine mutant","core complex methyltransferase activity, H3K4me1 peptide, mutant against wild type",showed similar amounts of activity compared to that of their wild-type counterparts
"GST-tagged SETd1A Win-SET domain, Setd1A(1474-1708), Win motif arginine to alanine mutant","core complex methyltransferase activity, H3K4me1 and H3K4me2 peptides, mutant against wild type",at least a 2-fold reduction in activity compared to their wild-type counterparts
